Measured values reported in patent publication US20240132615A1 (ICHNOS SCIENCES, published 2024).

B1: Anti-CD3-C1-UCP01-H9 IgG1LALA (antibody, V domains shown)
VH: QVQLVQSGAEVKKPGSSVKVSCKASGGKFSRYAISWVRQAPGQGLEWMGGISPHVGYAEYAQKFQGRVTITADESTSTAYMELSSLRSEDTAVYYCARYGYSLYMDIWGQGTLVTVSS
VL: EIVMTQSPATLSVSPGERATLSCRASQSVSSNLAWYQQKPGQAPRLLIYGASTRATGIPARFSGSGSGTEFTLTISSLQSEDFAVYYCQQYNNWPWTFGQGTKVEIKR
notes: IgG1 LALA
B2: Anti-CD3-C1-UCP01-B6 IgG1LALA (antibody, V domains shown)
VH: QVQLVQSGAEVKKPGSSVKVSCKASGGKFSRYAISWVRQAPGQGLEWMGGISPYQGYASYAQKFQGRVTITADESTSTAYMELSSLRSEDTAVYYCARYGYSLYMDIWGQGTLVTVSS
VL: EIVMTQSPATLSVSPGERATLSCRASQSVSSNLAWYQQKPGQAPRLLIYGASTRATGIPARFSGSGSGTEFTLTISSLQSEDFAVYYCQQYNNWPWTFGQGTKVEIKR
notes: IgG1 LALA
B3: Anti-CD3-C1-UCP01-C11 IgG1LALA (antibody, V domains shown)
VH: QVQLVQSGAEVKKPGSSVKVSCKASGGKFSRYAISWVRQAPGQGLEWMGGINPHVGAPEYAQKFQGRVTITADESTSTAYMELSSLRSEDTAVYYCARYGYSLYMDIWGQGTLVTVSS
VL: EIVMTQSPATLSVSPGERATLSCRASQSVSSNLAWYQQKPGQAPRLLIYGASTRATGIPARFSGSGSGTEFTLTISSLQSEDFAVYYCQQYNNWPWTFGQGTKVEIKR
notes: IgG1 LALA
B4: Anti-CD3-C1-UCP01-D1 IgG1LALA (antibody, V domains shown)
VH: QVQLVQSGAEVKKPGSSVKVSCKASGGKFSRYAISWVRQAPGQGLEWMGGINPLSDEAQYAQKFQGRVTITADESTSTAYMELSSLRSEDTAVYYCARYGYSLYMDIWGQGTLVTVSS
VL: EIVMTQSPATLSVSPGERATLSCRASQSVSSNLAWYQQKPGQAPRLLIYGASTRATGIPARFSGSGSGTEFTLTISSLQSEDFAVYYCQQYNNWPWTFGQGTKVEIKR
notes: IgG1 LALA
B5: Anti-CD3-C1-UCP01-D4 IgG1LALA (antibody, V domains shown)
VH: QVQLVQSGAEVKKPGSSVKVSCKASGGKFSRYAISWVRQAPGQGLEWMGGINPIRGRPSYAQKFQGRVTITADESTSTAYMELSSLRSEDTAVYYCARYGYSLYMDIWGQGTLVTVSS
VL: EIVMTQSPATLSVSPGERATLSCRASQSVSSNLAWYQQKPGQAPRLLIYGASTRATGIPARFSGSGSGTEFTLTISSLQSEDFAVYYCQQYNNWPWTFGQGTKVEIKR
notes: IgG1 LALA
B6: Anti-CD3-C1-UCP01-D6 IgG1LALA (antibody, V domains shown)
VH: QVQLVQSGAEVKKPGSSVKVSCKASGGKFSRYAISWVRQAPGQGLEWMGGITALGGYPNYAQKFQGRVTITADESTSTAYMELSSLRSEDTAVYYCARYGYSLYMDIWGQGTLVTVSS
VL: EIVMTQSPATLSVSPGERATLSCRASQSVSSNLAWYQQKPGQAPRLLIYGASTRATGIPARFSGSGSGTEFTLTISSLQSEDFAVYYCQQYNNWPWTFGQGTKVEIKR
notes: IgG1 LALA; also called anti-CD3-C1-D6; C1-D6
B7: Anti-CD3-C1-UCP01-E7 IgG1LALA (antibody, V domains shown)
VH: QVQLVQSGAEVKKPGSSVKVSCKASGGKFSRYAISWVRQAPGQGLEWMGGINPHLGEAEYAQKFQGRVTITADESTSTAYMELSSLRSEDTAVYYCARYGYSLYMDIWGQGTLVTVSS
VL: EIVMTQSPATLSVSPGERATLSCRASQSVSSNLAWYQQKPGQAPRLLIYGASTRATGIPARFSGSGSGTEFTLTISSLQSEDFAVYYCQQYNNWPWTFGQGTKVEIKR
notes: IgG1 LALA
B8: Anti-CD38-UCP01-B1 Fab (Fab, V domains shown)
VH: QVQLVQSGAEVKKPGSSVKVSCKASGGDFDQYYISWVRQAPGQGLEWMGRIIPTLGDSQYAQKFQGRVTITADESTSTAYMELSSLRSEDTAVYYCARAVIVSPYYYIYVFDVWGQGTLVTVSS
VL: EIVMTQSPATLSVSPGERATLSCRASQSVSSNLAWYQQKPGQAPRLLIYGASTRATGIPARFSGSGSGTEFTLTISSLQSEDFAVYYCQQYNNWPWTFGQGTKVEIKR
notes: Fab
B9: Anti-CD38-UCP01-D1 Fab (Fab, V domains shown)
VH: QVQLVQSGAEVKKPGSSVKVSCKASGGIFNGYLISWVRQAPGQGLEWMGGIIPVNGLADYAQKFQGRVTITADESTSTAYMELSSLRSEDTAVYYCARTIGRYIIAFDYWGQGTLVTVSS
VL: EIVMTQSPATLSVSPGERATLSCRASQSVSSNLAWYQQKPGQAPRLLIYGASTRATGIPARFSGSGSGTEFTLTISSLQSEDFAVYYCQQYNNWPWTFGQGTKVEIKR
notes: Fab
B10: Anti-CD38-UCP01-F1 Fab (Fab, V domains shown)
VH: QVQLVQSGAEVKKPGSSVKVSCKASGGVFSLYTITWVRQAPGQGLEWMGSIIPLLGDPEYAQKFQGRVTITADESTSTAYMELSSLRSEDTAVYYCARYPYPYGSKYFDIWGQGTLVTVSS
VL: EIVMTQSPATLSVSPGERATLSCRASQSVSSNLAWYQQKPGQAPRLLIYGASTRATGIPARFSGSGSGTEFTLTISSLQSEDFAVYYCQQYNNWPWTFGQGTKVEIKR
notes: Fab
B11: Anti-CD38-UCP01-G1 Fab (Fab, V domains shown)
VH: QVQLVQSGAEVKKPGSSVKVSCKASGGGFSKYFITWVRQAPGQGLEWMGGVIPKIGYTSYAQKFQGRVTITADESTSTAYMELSSLRSEDTAVYYCARGSDDYASYSPLDSWGQGTLVTVSS
VL: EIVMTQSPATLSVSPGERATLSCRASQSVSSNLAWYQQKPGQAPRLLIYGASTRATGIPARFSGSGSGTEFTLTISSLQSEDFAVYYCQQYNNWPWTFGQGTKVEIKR
notes: Fab
B12: Anti-CD38-UCP01-H1 Fab (Fab, V domains shown)
VH: QVQLVQSGAEVKKPGSSVKVSCKASGDFFSGYAINWVRQAPGQGLEWMGRIIPLLGDTYYAQKFQGRVTITADESTSTAYMELSSLRSEDTAVYYCARSAAGWFAYWGQGTLVTVSS
VL: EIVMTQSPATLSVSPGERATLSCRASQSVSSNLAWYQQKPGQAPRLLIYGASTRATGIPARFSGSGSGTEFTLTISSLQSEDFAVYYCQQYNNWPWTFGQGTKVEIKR
notes: Fab
B13: Anti-CD38-UCP01-C2 Fab (Fab, V domains shown)
VH: QVQLVQSGAEVKKPGSSVKVSCKASGGYLGIYAISWVRQAPGQGLEWMGRIIPILGEADYAQKFQGRVTITADESTSTAYMELSSLRSEDTAVYYCARGGVWWDYWGQGTLVTVSS
VL: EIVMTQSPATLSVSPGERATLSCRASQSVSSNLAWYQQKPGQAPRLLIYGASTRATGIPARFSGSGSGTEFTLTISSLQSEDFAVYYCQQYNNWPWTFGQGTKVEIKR
notes: Fab
B14: Anti-CD38-UCP01-E2 FAB (Fab, V domains shown)
VH: QVQLVQSGAEVKKPGSSVKVSCKASGGSFSNYAIGWVRQAPGQGLEWMGRIIPVFGSAHYAQKFQGRVTITADESTSTAYMELSSLRSEDTAVYYCARGLGYYLYSSYYFDIWGQGTLVTVSS
VL: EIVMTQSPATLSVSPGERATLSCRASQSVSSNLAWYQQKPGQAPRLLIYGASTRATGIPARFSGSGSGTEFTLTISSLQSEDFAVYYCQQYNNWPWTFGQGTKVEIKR
notes: Fab; also called anti-CD38-E2; anti-CD38-E2 Fab
B15: Anti-CD38-UCP02-B7 Fab (Fab, V domains shown)
VH: EVQLVESGGGLVKPGGSLRLSCAASGFSFNEAWMTWVRQAPGKGLEWVGRIKSYSDGGYTGYAAPVKGRFTISRDDSKNTLYLQMNSLKTEDTAVYYCARSPGIPYHYFDVWGQGTLVTVSS
VL: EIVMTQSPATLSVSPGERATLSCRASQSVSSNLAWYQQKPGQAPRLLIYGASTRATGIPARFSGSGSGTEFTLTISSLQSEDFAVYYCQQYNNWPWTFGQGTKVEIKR
notes: Fab
B16: Anti-CD38-UCP03-C3 Fab (Fab, V domains shown)
VH: QVQLVQSGAEVKKPGSSVKVSCKASGGKFSNYAISWVRQAPGQGLEWMGRIIPQIGDAAYAQKFQGRVTITADESTSTAYMELSSLRSEDTAVYYCARASFLYYSYYFDYWGQGTLVTVSS
VL: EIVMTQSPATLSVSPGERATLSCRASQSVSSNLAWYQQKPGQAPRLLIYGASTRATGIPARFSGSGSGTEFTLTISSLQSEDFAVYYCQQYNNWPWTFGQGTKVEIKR
notes: Fab
B17: Anti-CD38-UCP02-C3 Fab (Fab, V domains shown)
VH: QVQLVQSGAEVKKPGSSVKVSCKASGDYFNNYAINWVRQAPGQGLEWMGRIIPFLDDANYAQKFQGRVTITADESTSTAYMELSSLRSEDTAVYYCARATSPLYSYYFDYWGQGTLVTVSS
VL: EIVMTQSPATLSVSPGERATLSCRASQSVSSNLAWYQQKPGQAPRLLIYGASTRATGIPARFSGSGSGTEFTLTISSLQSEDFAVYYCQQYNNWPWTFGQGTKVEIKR
notes: Fab
B18: Anti-CD38-UCP03-C2 Fab (Fab, V domains shown)
VH: QVQLVQSGAEVKKPGSSVKVSCKASGGTFSNYAISWVRQAPGQGLEWMGGIIPAFGDAGYAQKFQGRVTITADESTSTAYMELSSLRSEDTAVYYCARGRVLYYSYYFDYWGQGTLVTVSS
VL: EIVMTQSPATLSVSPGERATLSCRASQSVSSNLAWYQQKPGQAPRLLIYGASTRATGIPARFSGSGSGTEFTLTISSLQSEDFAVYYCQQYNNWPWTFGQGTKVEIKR
notes: Fab
B19: Anti-CD38-UCP02-D1 Fab (Fab, V domains shown)
VH: QVQLVQSGAEVKKPGSSVKVSCKASGGDFDQYYISWVRQAPGQGLEWMGRIIPTLGDSQYAQKFQGRVTITADESTSTAYMELSSLRSEDTAVYYCARAVIVSPYYYIYVFDVWGQGTLVTVSS
VL: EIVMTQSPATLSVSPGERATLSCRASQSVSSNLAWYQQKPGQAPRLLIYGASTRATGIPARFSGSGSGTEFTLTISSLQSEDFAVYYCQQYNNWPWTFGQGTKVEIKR
notes: Fab
B20: Anti-CD38-UCP02-D5 Fab (Fab, V domains shown)
VH: QVQLVQSGAEVKKPGSSVKVSCKASGGIFSVHAIHWVRQAPGQGLEWMGEIIPVIGEADYAQKFQGRVTITADESTSTAYMELSSLRSEDTAVYYCAREQYYYALGGGFDYWGQGTLVTVSS
VL: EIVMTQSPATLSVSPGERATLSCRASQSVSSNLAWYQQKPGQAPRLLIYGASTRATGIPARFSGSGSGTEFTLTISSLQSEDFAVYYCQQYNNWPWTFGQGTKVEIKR
notes: Fab
B21: Anti-CD38-UCP02-E5 Fab (Fab, V domains shown)
VH: QVQLVQSGAEVKKPGSSVKVSCKASGGGFRHYFISWVRQAPGQGLEWMGGIIPAAATPYYAQKFQGRVTITADESTSTAYMELSSLRSEDTAVYYCARGYWHWFDYWGQGTLVTVSS
VL: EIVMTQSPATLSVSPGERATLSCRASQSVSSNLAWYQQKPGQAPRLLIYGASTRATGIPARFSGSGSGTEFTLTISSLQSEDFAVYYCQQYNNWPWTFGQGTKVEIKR
notes: Fab
B22: Anti-CD38-UCP02-F2 Fab (Fab, V domains shown)
VH: QVQLVQSGAEVKKPGSSVKVSCKASGDVFSLLAIGWVRQAPGQGLEWMGRIIPSLDATHYAQKFQGRVTITADESTSTAYMELSSLRSEDTAVYYCARGRDVLRSYYFDIWGQGTLVTVSS
VL: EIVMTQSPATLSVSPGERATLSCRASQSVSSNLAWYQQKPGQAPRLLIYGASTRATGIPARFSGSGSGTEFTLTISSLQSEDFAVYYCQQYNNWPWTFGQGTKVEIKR
notes: Fab
B23: Anti-CD38-UCP02-F5 Fab (Fab, V domains shown)
VH: QVQLVQSGAEVKKPGSSVKVSCKASGGVFSYYTISWVRQAPGQGLEWMGRIIPSLGATHYAQKFQGRVTITADESTSTAYMELSSLRSEDTAVYYCARSDSFYYAYYMDLWGQGTLVTVSS
VL: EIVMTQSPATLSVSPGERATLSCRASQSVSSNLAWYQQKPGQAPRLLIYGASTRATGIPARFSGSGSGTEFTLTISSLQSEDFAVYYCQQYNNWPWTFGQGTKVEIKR
notes: Fab
B24: Anti-CD38-UCP02-F6 Fab (Fab, V domains shown)
VH: EVQLLESGGGLVQPGGSLRLSCAASGFTFSFYDMSWVRQAPGKGLEWVSAVSLYGDETYYADSVKGRFTISRDNSKNTLYLQMNSLRAEDTAVYYCAREPVSYDYYGSYFDYWGQGTLVTVSS
VL: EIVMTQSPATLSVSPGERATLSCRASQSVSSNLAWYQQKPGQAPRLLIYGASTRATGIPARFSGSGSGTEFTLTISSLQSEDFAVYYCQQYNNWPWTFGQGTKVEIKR
notes: Fab
B25: Anti-CD38-UCP02-H1 Fab (Fab, V domains shown)
VH: QVQLVQSGAEVKKPGSSVKVSCKASGDKFNTYAISWVRQAPGQGLEWMGGITPRYDYAHYAQKFQGRVTITADESTSTAYMELSSLRSEDTAVYYCARSWGFRAGYLDYWGQGTLVTVSS
VL: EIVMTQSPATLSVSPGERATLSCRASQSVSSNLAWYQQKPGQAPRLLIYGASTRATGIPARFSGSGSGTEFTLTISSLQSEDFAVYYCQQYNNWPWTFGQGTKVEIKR
notes: Fab
B26: Anti-CD38-UCP03-H5 Fab (Fab, V domains shown)
VH: QVQLVQSGAEVKKPGSSVKVSCKASGGLFSFYAISWVRQAPGQGLEWMGGIIPFFGEPQYAQKFQGRVTITADESTSTAYMELSSLRSEDTAVYYCARGSYRFDVWGQGTLVTVSA
VL: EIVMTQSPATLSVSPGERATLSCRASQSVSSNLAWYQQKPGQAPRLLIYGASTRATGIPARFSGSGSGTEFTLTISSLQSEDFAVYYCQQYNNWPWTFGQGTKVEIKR
notes: Fab
B27: Anti-CD38-UCP03-B6 Fab (Fab, V domains shown)
VH: QVQLVQSGAEVKKPGSSVKVSCKASGGHISNSAINWVRQAPGQGLEWMGRVIPVIDDAYYAQKFQGRVTITADESTSTAYMELSSLRSEDTAVYYCARSRGYYGSFYFDIWGQGTLVTVSS
VL: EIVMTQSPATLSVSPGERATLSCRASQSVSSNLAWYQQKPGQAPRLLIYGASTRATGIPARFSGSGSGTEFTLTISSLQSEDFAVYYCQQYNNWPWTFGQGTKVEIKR
notes: Fab
B28: Anti-CD38-UCP03-E3 Fab (Fab, V domains shown)
VH: QVQLVQSGAEVKKPGSSVKVSCKASGGSFSIYAISWVRQAPGQGLEWMGGIIPNSGDTDYAQKFQGRVTITADESTSTAYMELSSLRSEDTAVYYCARGPYDSYGESYFDYWGQGTLVTVSS
VL: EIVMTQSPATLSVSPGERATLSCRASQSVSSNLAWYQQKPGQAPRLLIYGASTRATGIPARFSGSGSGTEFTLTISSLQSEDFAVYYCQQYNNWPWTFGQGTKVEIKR
notes: Fab
B29: Anti-CD38-UCP03-A6 Fab (Fab, V domains shown)
VH: QVQLVQSGAEVKKPGSSVKVSCKASGGDFSLYAISWVRQAPGQGLEWMGGIIPLLGEPVYAQKFQGRVTITADESTSTAYMELSSLRSEDTAVYYCARGHRVYSSSPFDYWGQGTLVTVSS
VL: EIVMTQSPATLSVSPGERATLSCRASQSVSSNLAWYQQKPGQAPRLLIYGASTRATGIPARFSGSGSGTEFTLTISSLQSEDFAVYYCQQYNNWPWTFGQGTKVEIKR
notes: Fab
B30: Anti-CD38-UCP03-H2 Fab (Fab, V domains shown)
VH: QVQLVQSGAEVKKPGSSVKVSCKASGGEFSIYVISWVRQAPGQGLEWMGRVIPSTGDTNYAQKFQGRVTITADESTSTAYMELSSLRSEDTAVYYCARGKAYYSGWLAIWGQGTLVTVSS
VL: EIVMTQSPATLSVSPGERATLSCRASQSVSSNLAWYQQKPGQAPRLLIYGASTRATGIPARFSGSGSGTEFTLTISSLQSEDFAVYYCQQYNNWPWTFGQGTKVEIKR
notes: Fab
B31: Anti-CD38-UCP03-H3 Fab (Fab, V domains shown)
VH: QVQLVQSGAEVKKPGSSVKVSCKASGGVFSQFPISWVRQAPGQGLEWMGGIIAGYGATEYAQKFQGRVTITADESTSTAYMELSSLRSEDTAVYYCARVYGGIDWGQGTLVTVSS
VL: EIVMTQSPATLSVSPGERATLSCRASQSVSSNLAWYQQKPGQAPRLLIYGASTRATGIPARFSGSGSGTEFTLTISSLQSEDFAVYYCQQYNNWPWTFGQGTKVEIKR
notes: Fab

How the values were obtained:
[1] = target: T1, human CD3 on cells (HPB-ALL cells, primary human T cells) (human, UniProt P07766 23-207); experiment: flow cytometry, human CD4+ T cells
T1 construct: whole, on cells; only the epsilon chain is written

[2] = target: T2, recombinant cynomolgus monkey CD38-ECD-C-his protein (cynomolgus monkey, UniProt Q5VAN0 45-301); experiment: SPR, Fab as analyte, captured cynomolgus CD38-his
T2 construct: made in house; Q5VAN0 residues 43-301 (residue 44 deleted) with C-terminal 6-His; also called cynomolgus monkey CD38-C-His; recombinant cynomolgus monkey CD38 protein

[3] = target: T3, Biotinylated Human CD38 Protein, Avitag, His Tag (Acrobiosystems CD8-H82E7) (human, UniProt P28907 43-300, biotinylated); experiment: SPR, Fab as analyte, immobilised biotinylated human CD38;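 note: biacore T200 at 25 °C, single-cycle kinetics with Fab from 7.8 to 2000 nM, 3 min association then 5 min dissociation, fitted with a 1:1 Langmuir model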
T3 construct: bought protein; also called biotinylated recombinant human CD38 protein; human CD38-avi-his

T1 sequence (P07766 23-207): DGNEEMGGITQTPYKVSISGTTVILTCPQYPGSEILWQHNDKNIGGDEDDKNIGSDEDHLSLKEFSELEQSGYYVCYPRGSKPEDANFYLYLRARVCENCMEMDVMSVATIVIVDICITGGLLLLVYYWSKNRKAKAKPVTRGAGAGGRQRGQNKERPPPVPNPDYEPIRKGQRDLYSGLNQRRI

Binder	MFI at 800 nM [1]	Kd [2]	Kd [3]	binding result [2]
B1	133000 MFI			
B2	109000 MFI			
B3	119000 MFI			
B4	52800 MFI			
B5	126000 MFI			
B6	178000 MFI			
B7	82800 MFI			
B8		102 nM	193 nM	
B9			666 nM	no binding
B10		393 nM	429 nM	
B11		283 nM	1120 nM	
B12		352 nM	437 nM	
B13		53.5 nM	85.3 nM	
B14		89 nM	110 nM	
B15			1710 nM	
B16		465 nM	117 nM	

Binder	MFI at 800 nM [1]	Kd [2]	Kd [3]	binding result [2]
B17		188 nM	305 nM	
B18		628 nM	1390 nM	
B19		78 nM	133 nM	
B20		33.5 nM	192 nM	
B21			0.03 nM	
B22		14 nM	14.2 nM	
B23		55.2 nM	71.1 nM	
B24			389 nM	
B25		2.7 nM	154 nM	
B26		11 nM	142 nM	
B27		829 nM	225 nM	
B28		195 nM	300 nM	
B29		525 nM	410 nM	
B30		672 nM	1850 nM	
B31		178 nM	810 nM	
